± gives the uncertainty stated by the source.
B1: Ankyrin-3, residues 4094 to 4171; numbered along this chain, Q12955 (parent)
chain: MAIVADHLGLSWTELARELNFSVDEINQIRVENPNSLISQSFMLLKKWVTRDGKNATTDALTSVLTKINRIDIVTLLE

Variants of: B1
Assay: abundance fitness (aPCA) (normalised: wild type 0, dead -1); higher = more abundant; growth selection in yeast, the domain comes from the species named
Settings: Homo sapiens

D24E and F42A are within error of each other in abundance fitness: 0.053 ± 0.11 for the first, 0.043 ± 0.048 for the second.

First: M1G
Second: R30V
The abundance fitness of the first is lower: -0.566 ± 0.11 for the first, -0.172 ± 0.064 for the second.

E32C and N20Q are within error of each other in abundance fitness: -0.249 ± 0.093 for the first, -0.329 ± 0.093 for the second.

Compared with M1R, V74G is lower in abundance fitness: -0.265 ± 0.11 for the first, -0.651 ± 0.11 for the second.

G9N and N35C are within error of each other in abundance fitness: -0.047 ± 0.16 for the first, -0.212 ± 0.11 for the second.

T13M and I38Q are within error of each other in abundance fitness: -0.054 ± 0.071 for the first, -0.133 ± 0.11 for the second.

Compared with T75L, F21Y is lower in abundance fitness: 0.006 ± 0.056 for the first, -0.358 ± 0.18 for the second.

First: T66F
Second: E14Y
The abundance fitness of the first is higher: -0.052 ± 0.081 for the first, -0.432 ± 0.15 for the second.

Compared with A5W, S63G is higher in abundance fitness: -0.765 ± 0.13 for the first, -0.031 ± 0.053 for the second.

N33Y and V64T are within error of each other in abundance fitness: -0.168 ± 0.12 for the first, -0.087 ± 0.15 for the second.

Compared with N20E, W48S is lower in abundance fitness: -0.101 ± 0.073 for the first, -0.928 ± 0.18 for the second.

First: N55S
Second: Q28L
The abundance fitness of the first is higher: -0.021 ± 0.052 for the first, -0.254 ± 0.06 for the second.

W12E and S36M are within error of each other in abundance fitness: -0.903 ± 0.2 for the first, -0.778 ± 0.2 for the second.

Going from D24V to I38G, the abundance fitness rises from -0.341 ± 0.069 to -0.006 ± 0.061.

Compared with W12S, L10D is higher in abundance fitness: -0.968 ± 0.15 for the first, -0.011 ± 0.11 for the second.

L37D and E25T are within error of each other in abundance fitness: -0.254 ± 0.11 for the first, -0.334 ± 0.091 for the second.

Going from R70D to M43S, the abundance fitness rises from -0.753 ± 0.25 to 0.005 ± 0.054.

R17Q and T62C are within error of each other in abundance fitness: -0.273 ± 0.12 for the first, -0.292 ± 0.13 for the second.

E32W and E25G are within error of each other in abundance fitness: -0.839 ± 0.19 for the first, -0.826 ± 0.14 for the second.

E14I and G9M are within error of each other in abundance fitness: -0.278 ± 0.14 for the first, -0.244 ± 0.11 for the second.

Going from H7C to I3R, the abundance fitness rises from -0.637 ± 0.13 to -0.321 ± 0.05.

L8M and D72A are within error of each other in abundance fitness: -0.574 ± 0.15 for the first, -0.739 ± 0.14 for the second.

First: P34C
Second: R17K
The abundance fitness of the first is lower: -0.7 ± 0.21 for the first, 0.143 ± 0.083 for the second.

First: L15S
Second: A16G
The abundance fitness of the first is lower: -0.772 ± 0.12 for the first, -0.257 ± 0.052 for the second.

E32M and E14Q are within error of each other in abundance fitness: -0.106 ± 0.077 for the first, -0.02 ± 0.056 for the second.

Going from T62L to K67C, the abundance fitness falls from -0.045 ± 0.04 to -0.436 ± 0.25.

Compared with W12T, L45I is higher in abundance fitness: -1.1 ± 0.43 for the first, -0.302 ± 0.12 for the second.

E14C and N33R are within error of each other in abundance fitness: -0.23 ± 0.14 for the first, -0.148 ± 0.045 for the second.

A60C and E14D are within error of each other in abundance fitness: -0.09 ± 0.13 for the first, -0.074 ± 0.085 for the second.

Going from H7R to K46G, the abundance fitness falls from -0.05 ± 0.048 to -0.337 ± 0.049.

H7W and E25W are within error of each other in abundance fitness: -0.802 ± 0.21 for the first, -0.887 ± 0.19 for the second.

H7N and L65N are within error of each other in abundance fitness: -0.292 ± 0.15 for the first, -0.426 ± 0.25 for the second.

I73N and L76G are within error of each other in abundance fitness: -0.597 ± 0.39 for the first, -0.457 ± 0.066 for the second.

T57L and V49P are within error of each other in abundance fitness: -0.798 ± 0.098 for the first, -1.02 ± 0.19 for the second.

N35V and W48H are within error of each other in abundance fitness: -0.48 ± 0.079 for the first, -0.752 ± 0.38 for the second.

N55H and T62A are within error of each other in abundance fitness: -0.058 ± 0.094 for the first, 0.039 ± 0.069 for the second.

K47D and G53K are within error of each other in abundance fitness: -0.177 ± 0.19 for the first, -0.145 ± 0.13 for the second.

V23Y and G9E are within error of each other in abundance fitness: -0.534 ± 0.27 for the first, -0.273 ± 0.074 for the second.

T13S and R17E are within error of each other in abundance fitness: -0.078 ± 0.057 for the first, -0.074 ± 0.1 for the second.

First: G53A
Second: E78I
The abundance fitness of the first is lower: -0.457 ± 0.077 for the first, -0.219 ± 0.041 for the second.

R17C and K47N are within error of each other in abundance fitness: -0.076 ± 0.12 for the first, -0.033 ± 0.49 for the second.

T50K and A2F are within error of each other in abundance fitness: 0.098 ± 0.082 for the first, -0.035 ± 0.11 for the second.

First: D59Q
Second: L8C
The abundance fitness of the first is higher: 0.052 ± 0.11 for the first, -0.787 ± 0.22 for the second.

Going from L76C to A5T, the abundance fitness falls from -0.045 ± 0.096 to -0.774 ± 0.18.

Compared with R17G, L8R is lower in abundance fitness: -0.163 ± 0.058 for the first, -0.829 ± 0.11 for the second.

Going from G53Y to D59R, the abundance fitness rises from -0.962 ± 0.44 to -0.072 ± 0.048.

L10A and A56K are within error of each other in abundance fitness: -0.064 ± 0.068 for the first, -0.175 ± 0.21 for the second.

L44H and P34F are within error of each other in abundance fitness: -0.75 ± 0.33 for the first, -0.479 ± 0.18 for the second.

T57G and K46V are within error of each other in abundance fitness: -0.387 ± 0.06 for the first, -0.373 ± 0.062 for the second.

Compared with V74P, K46S is higher in abundance fitness: -0.86 ± 0.26 for the first, -0.024 ± 0.052 for the second.

First: T58H
Second: D59W
The abundance fitness of the first is higher: 0.001 ± 0.091 for the first, -0.201 ± 0.062 for the second.

Compared with I71L, L37P is lower in abundance fitness: 0.081 ± 0.053 for the first, -0.089 ± 0.056 for the second.

T50I and N35K are within error of each other in abundance fitness: -0.18 ± 0.1 for the first, -0.329 ± 0.12 for the second.

Compared with D52T, I71F is higher in abundance fitness: -0.607 ± 0.098 for the first, 0.066 ± 0.12 for the second.

First: H7Y
Second: T75M
The abundance fitness of the first is lower: -0.444 ± 0.13 for the first, -0.026 ± 0.1 for the second.

A56C and I73L are within error of each other in abundance fitness: -0.271 ± 0.11 for the first, -0.148 ± 0.05 for the second.

L8K and H7I are within error of each other in abundance fitness: -0.696 ± 0.36 for the first, -0.642 ± 0.26 for the second.

A60R and L76S are within error of each other in abundance fitness: -0.081 ± 0.051 for the first, -0.175 ± 0.06 for the second.

Going from G9Y to T66K, the abundance fitness rises from -0.924 ± 0.39 to -0.1 ± 0.12.

Going from K67Q to L65S, the abundance fitness falls from -0.056 ± 0.12 to -0.884 ± 0.13.

I73H and W12A are within error of each other in abundance fitness: -0.715 ± 0.24 for the first, -0.862 ± 0.16 for the second.

Going from Q40A to D72M, the abundance fitness falls from -0.064 ± 0.056 to -0.738 ± 0.33.

First: G9T
Second: E78D
The abundance fitness of the first is lower: -1 ± 0.29 for the first, -0.001 ± 0.072 for the second.

Compared with H7V, I73Y is lower in abundance fitness: -0.202 ± 0.057 for the first, -0.938 ± 0.39 for the second.

S11I and V4L are within error of each other in abundance fitness: -0.422 ± 0.19 for the first, -0.397 ± 0.057 for the second.

First: L45W
Second: T75I
The abundance fitness of the first is lower: -0.862 ± 0.14 for the first, -0.182 ± 0.11 for the second.

Q40W and S11M are within error of each other in abundance fitness: -0.736 ± 0.13 for the first, -0.94 ± 0.24 for the second.

First: N20G
Second: K47G
The abundance fitness of the first is higher: -0.081 ± 0.054 for the first, -0.31 ± 0.05 for the second.

K54N and I38H are within error of each other in abundance fitness: -0.316 ± 0.34 for the first, -0.167 ± 0.21 for the second.

Compared with V4R, N27R is higher in abundance fitness: -0.925 ± 0.11 for the first, -0.11 ± 0.044 for the second.

Compared with D59Y, A16P is lower in abundance fitness: -0.253 ± 0.15 for the first, -0.895 ± 0.13 for the second.

First: S41M
Second: T58F
The abundance fitness of the first is lower: -0.815 ± 0.32 for the first, -0.112 ± 0.15 for the second.

L37N and R30G are within error of each other in abundance fitness: -0.359 ± 0.16 for the first, -0.385 ± 0.067 for the second.

Compared with L65V, K54P is higher in abundance fitness: -0.779 ± 0.11 for the first, -0.107 ± 0.076 for the second.

E78C and E32K are within error of each other in abundance fitness: -0.275 ± 0.17 for the first, -0.48 ± 0.21 for the second.

Q40I and I3P are within error of each other in abundance fitness: -0.663 ± 0.37 for the first, -0.46 ± 0.087 for the second.

R51W and R51Y are within error of each other in abundance fitness: -0.503 ± 0.31 for the first, -0.773 ± 0.37 for the second.

I29G and S11L are within error of each other in abundance fitness: -0.927 ± 0.12 for the first, -0.963 ± 0.12 for the second.

First: A2P
Second: I71R
The abundance fitness of the first is lower: -0.193 ± 0.057 for the first, -0.036 ± 0.045 for the second.

Compared with S41G, L8S is lower in abundance fitness: -0.047 ± 0.048 for the first, -0.916 ± 0.17 for the second.

Compared with A60L, N33Q is higher in abundance fitness: -0.074 ± 0.054 for the first, 0.093 ± 0.067 for the second.

Compared with L44G, M43I is higher in abundance fitness: -0.93 ± 0.11 for the first, -0.431 ± 0.17 for the second.

Going from S63A to E25Y, the abundance fitness falls from -0.014 ± 0.034 to -0.792 ± 0.2.

In the case of N33L, the abundance fitness is reported as -0.755 ± 0.11.

Reference: the Human Domainome abundance scans (Beltran et al. 2025)
